Columns and labels:
[1] = target: AcrIIA22 2-amino acid C-terminal truncation mutant (thrombin-cleaved) (unnamed clostridial genus CAG-217 (human gut metagenome)); experiment: SEC; thrombin-cleaved AcrIIA22 variants; Superdex75 16/60; 25 mM Tris pH 7.5, 200 mM NaCl; size against protein standards
[2] = target: AcrIIA22 (thrombin-cleaved, from the N-terminal His6 construct) (unnamed clostridial genus CAG-217 (human gut metagenome)); experiment: as above

Substance	stoichiometry N [1]	stoichiometry N [2]
AcrIIA22 2-amino acid C-terminal truncation mutant (thrombin-cleaved) (domain or fragment)	2	
AcrIIA22 (thrombin-cleaved, from the N-terminal His6 construct) (natural protein)		4
